Reference: patent publication US10428093B2, “Lipid co-factor essential for cell density signaling” (priority 2013, dated 2019)

Test system: U2OS cells
Experiment: Growth of U2OS cells after adding concentrated conditioned media or free protein factor
Type: cell-based, human
Conditions: free factor expressed in E. coli added at 5 μg/ml, after a week (6 days), vs control
Experimental: FIGS. 13A-F—The cofactor has a unique lipid makeup depending on the producing cell type but would SNZR 1P1L and SNZR 1P2L give the same or different response if added to the same cell type. In this case we used the control cell line U2OS and added a 5× concentrated condition medium from PAT cells or from U2OS-pESY1c cells. An additional test was done to see if the free factor made in E. coli had any activity on U2OS cells if applied at a high concentration (5 μg/ml).
To answer these questions, U2OS cells were grown in regular media as a control, or with 5× concentrated condition media from U2OS-pESY1c cells expressing the SNZR 1P1L, and from 5× concentrated condition media from PAT cells expressing SNZR 1P2L. In addition, SNZR 1P purified from E. coli, was added at 5 μg/ml—3 orders of magnitude greater than the estimated level in CM (FIG. 13a,b,c,d). […] The high level of the protein factor was chosen because it seemed unlikely that the factor without the cofactor would have a lot of activity and small amounts of activity are difficult to detect by visualization.
U2OS cells were grown in F12/DMEM medium with 0.2% fetal bovine serum. In 75 cm^2 flasks the medium, […], was changed every other day. When the cells first overgrow the monolayer, they are very sensitive to medium volume and will apoptose if too much medium is added.
CM was produced by growing cells in 225 cm^2 flasks. […]

B1: SNZR 1P: secreted 94 AA cell density signal protein factor (chicken, SEQ ID NO:3; tagged form SEQ ID NO:13) (protein, listed as Gallus gallus)
chain: EPLAVVDLRPQSSVKVEVHFQDKVEEMSIRLDQTVAELKKHLKTVVQLSTSNMLLFYLDQEAPFGPEEMKYSSRALHSYGIRDGDKIYVEPRMK
Effect on growth of U2OS cells: did not appear to change the cultures | Effect on growth of U2OS cells (listed as secreted form of the factor): did not appear to increase growth
